Target: IL-7 receptor (IL-7R), heterodimer of IL-7R alpha (CD127) and common gamma chain (CD132), on primary human T cells (human) (UniProt P16871)
Test: cell-based or functional assay

Sequence of IL-7 receptor (IL-7R), heterodimer of IL-7R alpha (CD127) and common gamma chain (CD132), on primary human T cells (human) (P16871 21-459, chain 1 of 2): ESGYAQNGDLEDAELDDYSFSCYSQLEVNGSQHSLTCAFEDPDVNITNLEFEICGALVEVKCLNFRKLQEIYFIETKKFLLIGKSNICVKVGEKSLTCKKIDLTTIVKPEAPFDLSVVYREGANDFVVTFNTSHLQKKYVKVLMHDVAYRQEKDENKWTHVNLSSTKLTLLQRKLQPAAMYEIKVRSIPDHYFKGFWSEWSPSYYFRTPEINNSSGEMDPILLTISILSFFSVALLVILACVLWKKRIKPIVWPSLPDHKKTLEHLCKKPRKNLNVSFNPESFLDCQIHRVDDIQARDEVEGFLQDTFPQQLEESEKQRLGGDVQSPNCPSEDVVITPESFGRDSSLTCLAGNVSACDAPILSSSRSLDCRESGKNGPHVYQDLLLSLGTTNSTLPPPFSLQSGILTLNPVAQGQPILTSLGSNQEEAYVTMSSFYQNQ
Sequence of IL-7 receptor (IL-7R), heterodimer of IL-7R alpha (CD127) and common gamma chain (CD132), on primary human T cells (human) (P31785 23-369, chain 2 of 2, further chain): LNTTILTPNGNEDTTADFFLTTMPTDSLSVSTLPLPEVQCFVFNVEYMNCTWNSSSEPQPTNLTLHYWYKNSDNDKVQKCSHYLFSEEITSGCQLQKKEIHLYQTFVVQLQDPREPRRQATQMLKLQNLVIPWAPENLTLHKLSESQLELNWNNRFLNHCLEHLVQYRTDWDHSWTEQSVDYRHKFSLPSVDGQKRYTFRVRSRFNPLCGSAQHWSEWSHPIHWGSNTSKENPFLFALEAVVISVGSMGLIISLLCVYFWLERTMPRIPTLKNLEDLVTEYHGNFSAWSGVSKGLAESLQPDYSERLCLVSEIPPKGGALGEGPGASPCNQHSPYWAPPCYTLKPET

- Avg EC50 (nM) (human pSTAT5), CD4 Memory: 0.001 nM
- Avg EC50 (nM) (human pSTAT5), CD4 Naive: 0.001 nM
- Avg EC50 (nM) (human pSTAT5), CD4 Treg: 0.033 nM
- Avg EC50 (nM) (human pSTAT5), CD8 Memory: 0.006 nM
- Avg EC50 (nM) (human pSTAT5), CD8 Naive: 0.002 nM
B1: WT IL-7 His (SEQ ID NO: 2), native IL-7 with His-tag (ligand)
chain: DCDIEGKDGKQYESVLMVSIDQLLDSMKEIGSNCLNNEFNFFKRHICDANKEGMFLFRAARKLRQFLKMNSTGDFDLHLLKVSEGTTILLNCTGQVKGRKPAALGEAQPTKSLEENKSLKEQKKLNDLCFLKRLLQEIKTCWNKILMGTKEHVDHHHHHH

From US20240158537A1
